# Measured values published in the supplement of paper PMC7877785.
# ± gives the uncertainty stated by the source.
# Assay: self-splicing fitness, log relative to wild type (ln ratio); higher = more splicing; Tetrahymena group I intron in knt gene, E. coli kanamycin selection, DiMSum; sequences stand for … in CUCUCU…GGAGGGAAAAGUUAUCAGGCAUGCACCUGGUAGCUAGUCUUUAAACCAAUAGAUUGCAUCGGUUUAAAAGGCAAGACCGUCAAAUUGCGGGAAAGGGGUCAACAGCCGUUCAGUACCAAGUCUCAGGGGAAACUUUGAGAUGGCCUUGCAAAGGGUAUGGUAAUAAGCUGACGGACAUGGUCCUAACCACGCAGCCAAGUCCUAAGUCAACAGAUCUUCUGUUGAUAUGGAUGCAGUUCACAGACUAAAUGUCGGUCGGGGAAGAUGUAUUCUUCUCAUAAGAUAUAGUCGGACCUCUCCUUAAUGGGAGCUAGCGGAUGAAGUGAUGCAACACUGGAGCCGCUGGGAACUAAUUUGUAUGCGAAAGUAUAUUGAUUAGUUUUGGAGUACUCGUGGUCG
# Outline: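 A randomised library covering all eight P1ex-region intron nucleotides was built with the intron in the knt kanamycin-resistance gene on pET-22b(+) and held in E. coli BL21(DE3). Cells were grown overnight at 37°C or 30°C on LB agar, with or without 25 μg/mL kanamycin, plus 100 μg/mL carbenicillin, 50 μM IPTG and 0.2% rhamnose, and pooled colonies were amplicon-sequenced on an Illumina HiSeq 2500. DiMSum fitness is the error-weighted combination of wild-type-normalised replicate fold changes, kanamycin versus none.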
Sequence,self-splicing fitness (ln) (30 °C),self-splicing fitness (ln) (37 °C)
AUUAAGCAAUAUUACGUUAG,-2.76 ± 0.23,-3.12 ± 0.27
AUUAAGCAAUAUUACGUUGU,-1.98 ± 0.21,-2.8 ± 0.32
AUUCAGCAAUAUUACGACCU,-0.21 ± 0.095,0.317 ± 0.12
AUUCAGCAAUAUUACGAGGC,-3.49 ± 0.19,-1.51 ± 0.19
AUUCAGCAAUAUUACGAGUA,-1.81 ± 0.2,-1.24 ± 0.18
AUUCAGCAAUAUUACGCAAG,-1.26 ± 0.098,-0.884 ± 0.13
AUUCAGCAAUAUUACGCCAU,-1.46 ± 0.1,-1.09 ± 0.1
AUUCAGCAAUAUUACGCCCA,-1.11 ± 0.18,-0.0785 ± 0.23
AUUCAGCAAUAUUACGCGAC,-2.38 ± 0.23,-0.937 ± 0.18
AUUCAGCAAUAUUACGCUAU,-1.45 ± 0.079,-0.637 ± 0.1
AUUCAGCAAUAUUACGCUGC,-2.3 ± 0.13,-2.35 ± 0.19
AUUCAGCAAUAUUACGCUUC,-2.28 ± 0.15,-1.76 ± 0.18
AUUCAGCAAUAUUACGGACA,-0.904 ± 0.078,-0.744 ± 0.095
AUUCAGCAAUAUUACGGACC,-0.601 ± 0.1,0.355 ± 0.15
AUUCAGCAAUAUUACGGACG,-0.626 ± 0.08,-0.168 ± 0.098
AUUCAGCAAUAUUACGGGGC,-3.25 ± 0.3,-2.99 ± 0.21
AUUCAGCAAUAUUACGGUGA,-0.556 ± 0.097,-0.526 ± 0.086
AUUCAGCAAUAUUACGUUAA,-1.62 ± 0.12,-0.923 ± 0.1
AUUGAGCAAUAUUACGAACC,,-2.31 ± 0.46
AUUGAGCAAUAUUACGAGAU,-3.73 ± 0.35,-1.11 ± 0.26

Sequence,self-splicing fitness (ln) (30 °C),self-splicing fitness (ln) (37 °C)
AUUGAGCAAUAUUACGAGUC,-4.1 ± 0.34,-2.38 ± 0.35
AUUGAGCAAUAUUACGCCUU,-2.26 ± 0.39,-1.89 ± 0.3
AUUGAGCAAUAUUACGCGAC,-3.45 ± 0.3,-1.2 ± 0.24
AUUGAGCAAUAUUACGCGCU,-2.3 ± 0.29,-1.29 ± 0.41
AUUGAGCAAUAUUACGCGGG,-3.34 ± 0.36,-2.25 ± 0.35
AUUGAGCAAUAUUACGCGUU,-3.02 ± 0.26,-2.34 ± 0.23
AUUGAGCAAUAUUACGGCAA,-1.58 ± 0.14,-0.831 ± 0.13
AUUGAGCAAUAUUACGGCAU,-1.17 ± 0.088,-0.323 ± 0.13
AUUGAGCAAUAUUACGGCUC,,-1.77 ± 0.32
AUUGAGCAAUAUUACGGGCC,-2.96 ± 0.36,-2.05 ± 0.43
AUUGAGCAAUAUUACGGGUA,,-2.06 ± 0.32
AUUGAGCAAUAUUACGGGUC,-3.34 ± 0.39,
AUUGAGCAAUAUUACGGGUU,-3.92 ± 0.25,-3.31 ± 0.21
AUUGAGCAAUAUUACGGUAA,-3.25 ± 0.22,-2.53 ± 0.2
AUUGAGCAAUAUUACGGUGA,-2.89 ± 0.28,-1.48 ± 0.22
AUUGAGCAAUAUUACGUAGA,-2.86 ± 0.26,-2.38 ± 0.42
AUUGAGCAAUAUUACGUAGG,-3.16 ± 0.37,0.0777 ± 0.29
AUUGAGCAAUAUUACGUCAU,-2.76 ± 0.14,-2.12 ± 0.17
AUUGAGCAAUAUUACGUCGG,-4.24 ± 0.46,-1.68 ± 0.39
AUUGAGCAAUAUUACGUUUU,-3.05 ± 0.17,-1.38 ± 0.22
